Assay results from paper PMC2755179 (Autophagy, 2008).

Experiments:
Test in all cases: ITC
KSHV Bcl-2 = target: T1, KSHV Bcl-2 (Kaposi's sarcoma-associated HV, UniProt P90504)
T1 sequence: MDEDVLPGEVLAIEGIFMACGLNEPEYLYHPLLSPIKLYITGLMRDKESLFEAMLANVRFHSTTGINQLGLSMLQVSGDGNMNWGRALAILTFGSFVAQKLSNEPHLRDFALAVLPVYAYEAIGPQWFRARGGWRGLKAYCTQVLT

γHV68 M11 = target: T2, γHV68 M11 (murine γ-herpesvirus 68, UniProt P89884 1-136)
T2 sequence: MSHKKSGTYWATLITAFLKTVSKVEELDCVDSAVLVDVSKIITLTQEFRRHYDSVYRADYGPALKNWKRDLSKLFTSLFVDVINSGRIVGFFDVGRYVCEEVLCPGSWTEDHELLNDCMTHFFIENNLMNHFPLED

cellular Bcl-2 = cellular Bcl-2 (UniProt P10415 1-211)
Chain of cellular Bcl-2 (P10415 1-211): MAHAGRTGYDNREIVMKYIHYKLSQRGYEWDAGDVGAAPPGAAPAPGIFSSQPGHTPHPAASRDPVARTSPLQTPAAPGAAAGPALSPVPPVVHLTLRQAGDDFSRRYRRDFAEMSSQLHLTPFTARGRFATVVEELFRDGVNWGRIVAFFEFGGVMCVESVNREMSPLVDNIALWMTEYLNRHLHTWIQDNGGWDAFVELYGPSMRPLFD

B1: MBP•Beclin 1(1–135)•His6 (domain or fragment, human, UniProt Q14457 1-135, looked up)
chain: MEGSKTSNNSTMQVSFVCQRCSQPLKLDTSFKILDRVTIQELTAPLLTTAQAKPGETQEEETNSGEEPFIETPRQDGVSRRFIPPARMMSTESANSFTLIGEASDGGTMENLSRRLKVTGDLFDIMSGQTDVDHP
Kd (KSHV Bcl-2): 54.2 µM
Kd (γHV68 M11): 0.2 µM
Kd (cellular Bcl-2): 8.6 µM

DGGTMENLSRRLKVTGDLFDIMSGQT (peptide, UniProt Q14457 105-130, looked up) [Beclin 1 BH3 domain]
Kd (KSHV Bcl-2): 13.3 µM
Kd (γHV68 M11): 1.1 µM
Kd (cellular Bcl-2): 8 µM
